Experimental findings from PMC7544233 (2020) are described below.

Data set [1] relates to FAM-D-hTERC rG4 (RNA, G4) GGGUUGCGGAGGGUGGGCCU
Put plainly: microscale thermophoresis. To be noted: 150 mM KCl, 1 mM MgCl2; 25 mM Tris-HCl pH 7.5, 25 °C, 40 nM RNA. On the technique in general: Microscale thermophoresis detects binding through changes in fluorescence in a small temperature gradient.

Data set [2] has as its target nucleolin (UniProt P19338 1-710). Description: EMSA.
Data set [3] has as its target T1, RHAU53 peptide (UniProt Q9H2U1 53-105).
T1 sequence: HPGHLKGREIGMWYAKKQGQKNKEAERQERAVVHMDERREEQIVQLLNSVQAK
Description: EMSA. (In general: A gel shift assay detects complexes by their altered migration in electrophoresis.)

Sequence of nucleolin (P19338 whole entry): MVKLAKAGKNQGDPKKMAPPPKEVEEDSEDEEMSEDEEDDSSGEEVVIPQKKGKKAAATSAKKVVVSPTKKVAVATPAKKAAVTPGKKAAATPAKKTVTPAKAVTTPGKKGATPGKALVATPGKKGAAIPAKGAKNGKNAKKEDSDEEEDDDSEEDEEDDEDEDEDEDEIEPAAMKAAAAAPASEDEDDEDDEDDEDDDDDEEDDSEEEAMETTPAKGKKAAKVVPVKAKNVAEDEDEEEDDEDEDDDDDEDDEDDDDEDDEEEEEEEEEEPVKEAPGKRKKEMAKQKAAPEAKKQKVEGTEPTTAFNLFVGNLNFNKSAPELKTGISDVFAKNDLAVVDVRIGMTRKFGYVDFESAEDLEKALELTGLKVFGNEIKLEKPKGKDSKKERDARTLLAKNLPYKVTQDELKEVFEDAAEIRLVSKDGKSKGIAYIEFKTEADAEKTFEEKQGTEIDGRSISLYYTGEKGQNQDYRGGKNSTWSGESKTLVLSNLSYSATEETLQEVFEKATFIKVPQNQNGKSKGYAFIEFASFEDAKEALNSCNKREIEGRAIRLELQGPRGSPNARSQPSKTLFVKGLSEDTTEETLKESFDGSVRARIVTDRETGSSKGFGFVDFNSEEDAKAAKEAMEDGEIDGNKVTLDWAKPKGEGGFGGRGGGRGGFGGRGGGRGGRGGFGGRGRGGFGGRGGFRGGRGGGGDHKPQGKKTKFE

Usually Kd stands for the constant that tells how readily two partners part at equilibrium. A lower Kd goes with a tighter complex. In data set [1], `NCCOc1cc(NC(=O)c2cc(OCc3cn(CCC(=O)O)nn3)cc(C(=O)Nc3cc(OCCN)c4ccccc4n3)n2)nc2ccccc12` had a Kd of 19.5 ± 11.5 nM.

B1: D-hTERC rG4 (structured_RNA)
RNA: GGGUUGCGGAGGGUGGGCCU
As for B1, in data set [2], the binding result is “binds”. Also, in data set [3], the affinity, expressed as Kd, was 24.5 ± 3.9 nM.
